Results from EP4628097A1 (Innovent Biologics (Suzhou) Co., Ltd., dated 2025).

How the values were obtained:
human VEGF165 [1] = biological target: T1, human VEGF165 (human, UniProt P15692-4 27-191); assay: ELISA, relative binding activity; final formula 40 mg/mL, 25 C, 1M
T1 construct: all are put under this molecule; also called VEGF A; VEGFA

human Ang2 [2] = biological target: T2, human Ang2 (human, UniProt O15123 19-496, limits assumed); assay: as above
T2 construct: Bought proteins; also called hAng2-biotin; Ang2-Bio (Sino)
T2 sequence (looked up): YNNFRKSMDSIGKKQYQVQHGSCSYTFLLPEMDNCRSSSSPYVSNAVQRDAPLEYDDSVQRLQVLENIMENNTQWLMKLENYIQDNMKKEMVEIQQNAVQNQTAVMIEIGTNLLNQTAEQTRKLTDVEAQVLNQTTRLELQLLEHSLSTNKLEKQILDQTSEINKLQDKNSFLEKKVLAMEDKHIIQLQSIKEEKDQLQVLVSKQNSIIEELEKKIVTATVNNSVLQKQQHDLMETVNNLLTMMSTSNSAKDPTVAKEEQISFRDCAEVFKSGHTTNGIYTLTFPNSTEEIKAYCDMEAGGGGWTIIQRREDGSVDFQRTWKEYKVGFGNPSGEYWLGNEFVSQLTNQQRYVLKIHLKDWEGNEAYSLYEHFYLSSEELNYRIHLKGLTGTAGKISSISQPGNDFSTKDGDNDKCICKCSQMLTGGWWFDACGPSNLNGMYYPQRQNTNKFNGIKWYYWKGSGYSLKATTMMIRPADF

human VEGF165 [3] = biological target: T1, human VEGF165; assay: ELISA, relative binding activity; IEX04-012 about 40 mg/mL in F6, 40 C, 0 weeks
human Ang2 [4] = biological target: T2, human Ang2; assay: as above
human VEGF165 [5] = biological target: T1, human VEGF165; assay: ELISA, relative binding activity; IEX04-012 about 40 mg/mL in F8, 40 C, 2 weeks
human Ang2 [6] = biological target: T2, human Ang2; assay: as above
human VEGF165 [7] = biological target: T1, human VEGF165; assay: ELISA, relative binding activity; IEX04-012 about 40 mg/mL in F2, 40 C, 0 weeks
human Ang2 [8] = biological target: T2, human Ang2; assay: as above
human VEGF165 [9] = biological target: T1, human VEGF165; assay: ELISA, relative binding activity; IEX04-012 about 40 mg/mL in F10, 40 C, 0 weeks
human Ang2 [10] = biological target: T2, human Ang2; assay: as above
human VEGF165 [11] = biological target: T1, human VEGF165; assay: ELISA, relative binding activity; final formula 40 mg/mL, T0
human Ang2 [12] = biological target: T2, human Ang2; assay: as above
human VEGF165 [13] = biological target: T1, human VEGF165; assay: ELISA, relative binding activity; IEX04-012 about 40 mg/mL in F2, 40 C, 2 weeks
human Ang2 [14] = biological target: T2, human Ang2; assay: as above
human VEGF165 [15] = biological target: T1, human VEGF165; assay: ELISA, relative binding activity; 120 mg/mL formula, 2-8 C, 6M
human Ang2 [16] = biological target: T2, human Ang2; assay: as above
human VEGF165 [17] = biological target: T1, human VEGF165; assay: ELISA, relative binding activity; IEX04-012 about 40 mg/mL in F10, 40 C, 2 weeks
human Ang2 [18] = biological target: T2, human Ang2; assay: as above
human VEGF165 [19] = biological target: T1, human VEGF165; assay: ELISA, relative binding activity; IEX04-012 about 40 mg/mL in F6, 40 C, 2 weeks
human Ang2 [20] = biological target: T2, human Ang2; assay: as above
human VEGF165 [21] = biological target: T1, human VEGF165; assay: ELISA, relative binding activity; 120 mg/mL formula, 25 C, 2M
human Ang2 [22] = biological target: T2, human Ang2; assay: as above
human VEGF165 [23] = biological target: T1, human VEGF165; assay: ELISA, relative binding activity; IEX04-012 about 40 mg/mL in F5, 40 C, 0 weeks
human VEGF165 [24] = biological target: T1, human VEGF165; assay: ELISA, relative binding activity; final formula 40 mg/mL, 2-8 C, 12M
human Ang2 [25] = biological target: T2, human Ang2; assay: as above

T1 sequence (P15692 other isoform, or with tags, fused parts or gaps limits assumed): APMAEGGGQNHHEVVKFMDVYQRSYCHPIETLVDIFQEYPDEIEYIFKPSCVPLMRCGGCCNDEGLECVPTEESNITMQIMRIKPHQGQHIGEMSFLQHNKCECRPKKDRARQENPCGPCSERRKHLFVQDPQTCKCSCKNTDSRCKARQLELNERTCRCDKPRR

Relative binding Activity to VEGF A (ELISA, %) (human VEGF165 [1]): 98% | Relative binding Activity to Ang2 (ELISA, %) (human Ang2 [2]): 93% | Relative binding Activity to VEGF (ELISA, %) (human VEGF165 [3]): 100% | Relative binding Activity to Ang2 (ELISA, %) (human Ang2 [4]): 100% | Relative binding Activity to VEGF (ELISA, %) (human VEGF165 [5]): 102% | Relative binding Activity to Ang2 (ELISA, %) (human Ang2 [6]): 91% | Relative binding Activity to VEGF (ELISA, %) (human VEGF165 [7]): 100% | Relative binding Activity to Ang2 (ELISA, %) (human Ang2 [8]): 100% | Relative binding Activity to VEGF (ELISA, %) (human VEGF165 [9]): 100% | Relative binding Activity to Ang2 (ELISA, %) (human Ang2 [10]): 100% | Relative binding Activity to VEGF A (ELISA, %) (human VEGF165 [11]): 103% | Relative binding Activity to Ang2 (ELISA, %) (human Ang2 [12]): 95% | Relative binding Activity to VEGF (ELISA, %) (human VEGF165 [13]): 99% | Relative binding Activity to Ang2 (ELISA, %) (human Ang2 [14]): 102% | Relative binding Activity to VEGF A (ELISA, %) (human VEGF165 [15]): 99% | Relative binding Activity to Ang2 (ELISA, %) (human Ang2 [16]): 96% | Relative binding Activity to VEGF (ELISA, %) (human VEGF165 [17]): 99% | Relative binding Activity to Ang2 (ELISA, %) (human Ang2 [18]): 99% | Relative binding Activity to VEGF (ELISA, %) (human VEGF165 [19]): 99% | Relative binding Activity to Ang2 (ELISA, %) (human Ang2 [20]): 89% | Relative binding Activity to VEGF A (ELISA, %) (human VEGF165 [21]): 92% | Relative binding Activity to Ang2 (ELISA, %) (human Ang2 [22]): 84% | Relative binding Activity to VEGF (ELISA, %) (human VEGF165 [23]): 100% | Relative binding Activity to VEGF A (ELISA, %) (human VEGF165 [24]): 100% | Relative binding Activity to Ang2 (ELISA, %) (human Ang2 [25]): 96%
B1: IEX04-012 (bispecific antibody)
chain: DIQLTQSPSSLSASVGDRVTITCSASQDISNYLNWYQQKPGKAPKVLIYFTSSLHSGVPSRFSGSGSGTDFTLTISSLQPEDFATYYCQQYSTVPWTFGCGTKVEIKGGGGSGGGGSGGGGSGGGGSEVQLVESGGGLVQPGGSLRLSCAASGYDFTHYGMNWVRQAPGKCLEWVGWINTYTGEPTYAADFKRRFTFSLDTSKSTAYLQMNSLRAEDTAVYYCAKYPYYYGTSHWYFDVWGQGTLVTVSSGGGGSGGGGSGGGGSEVQLLESGGGLVQPGGSLRLSCAASGFALDYYAIGWFRQAPGKGLEGVSCISSGEGSTYYADSVKGRFTISRDNSKNTVYLQMNSLRAEDTAVYYCATDSRGDDVACEGLRRNEYDYWGQGTLVTVSS
